Measurements as given in the PETadex activity labels (doi:10.1021/ma200949p).

Columns and labels:
pNPB [1] = experiment: Proxy for plastic degradation [Km]; details: pH 7
pNPB [2] = experiment: Proxy for plastic degradation [kcat] (s⁻¹); details: pH 7
PET [3] = experiment: Proxy for plastic degradation [Released monomer concentration (HPLC/LC-MS) (BA)]; details: pH 7
PET [4] = experiment: Proxy for plastic degradation [Released monomer concentration (HPLC/LC-MS) (HEB)]; details: pH 7
MHET = experiment: Proxy for plastic degradation [Released monomer concentration (HPLC/LC-MS) (MHET)]; details: pH 7
PET [5] = experiment: Proxy for plastic degradation [Released monomer concentration (HPLC/LC-MS) (MHET+BA, TA, HEB)]; details: pH 7
p-NP-C2 = details: pH 7, 25 °C
p-NP-C4 = details: pH 7, 25 °C
pNP-C2 [6] = experiment: Proxy for plastic degradation [Km]; details: pH 7
pNP-C2 [7] = experiment: Proxy for plastic degradation [kcat] (s⁻¹); details: pH 7
PET [8] = experiment: Proxy for plastic degradation [Water contact angle]; details: pH 7
PET [9] = experiment: Proxy for plastic degradation [Released monomer concentration (HPLC/LC-MS) (TPA)] (mmol/mol enzyme); details: pH 7
PET [10] = experiment: Proxy for plastic degradation [Released monomer concentration (HPLC/LC-MS) (TPA+MHET+BA+HEB)] (mmol/mol enzyme); details: pH 7
PET [11] = experiment: Proxy for plastic degradation [Released monomer concentration (HPLC/LC-MS) (BA (benzoic acid))] (mmol/mol enzyme); details: pH 7
PET [12] = experiment: Proxy for plastic degradation [Released monomer concentration (HPLC/LC-MS) (HEB (2-hydroxyethyl benzoate))] (mmol/mol enzyme); details: pH 7
PET [13] = experiment: Proxy for plastic degradation [Surface fluorescence after BrNP labelling]; details: pH 7; part of the chain shown

B1: unnamed (protein)
chain: MAVMTPRRERSSLLSRALQVTAAAATALVTAVSLAAPAHAANPYERGPNPTDALLEASSGPFSVSEENVSRLSASGFGGGTIYYPRENNTYGAVAISPGYTGTEASIAWLGERIASHGFVVITIDTITTLDQPDSRAEQLNAALNHMINRASSTVRSRIDSSRLAVMGHSMGGGGTLRLASQRPDLKAAIPLTPWHLNKNWSSVTVPTLIIGADLDTIAPVATHAKPFYNSLPSSISKAYLELDGATHFAPNIPNKIIGKYSVAWLKRFVDNDTRYTQFLCPGPRDGLFGEVEEYRSTCPF
pNPB [1]
  Proxy for plastic degradation: 2100 µM
pNPB [2]
  Proxy for plastic degradation: 30.9
PET [3]
  Proxy for plastic degradation: 23 mmol/mol
PET [4]
  Proxy for plastic degradation: 22 mmol/mol
MHET
  Proxy for plastic degradation: 15 mmol/mol
MHET; 50 °C
  Proxy for plastic degradation: 7 mmol/mol
PET [5]
  Proxy for plastic degradation: 49 mmol/mol

B2: unnamed (protein)
chain: MANPYERGPNPTDALLEARSGPFSVSEENVSRLSASGFGGGTIYYPRENNTYGAVAISPGYTGTEASIAWLGERIASHGFVVITIDTITTLDQPDSRAEQLNAALNHMINRASSTVRSRIDSSRLAVMGHSMGGGGSLRLASQRPDLKAAIPLTPWHLNKNWSSVRVPTLIIGADLDTIAPVLTHARPFYNSLPTSISKAYLELDGATHFAPNIPNKIIGKYSVAWLKRFVDNDTRYTQFLCPGPRDGLFGEVEEYRSTCPF
p-NP-C2
  Km: 167 µM
  kcat: 39.5 s⁻¹
  kcat/Km: 237000 M⁻¹ s⁻¹
p-NP-C4
  Km: 2100 µM
  kcat: 30.9 s⁻¹
  kcat/Km: 14700 M⁻¹ s⁻¹
pNP-C2 [6]
  Proxy for plastic degradation: 167 µM
pNPB [1]
  Proxy for plastic degradation: 2100 µM
pNP-C2 [7]
  Proxy for plastic degradation: 39.5
pNPB [2]
  Proxy for plastic degradation: 30.9
PET [8]
  Proxy for plastic degradation: 71.2 °
PET [9]
  Proxy for plastic degradation: 42
PET [10]; 2 h
  Proxy for plastic degradation: 64
PET [10]; 24 h
  Proxy for plastic degradation: 830
PET [10]; 72 h
  Proxy for plastic degradation: 1820
PET [11]
  Proxy for plastic degradation: 22.7
PET [12]
  Proxy for plastic degradation: 23.4

B3: unnamed (protein)
chain: MANPYERGPNPTDALLEASSGPFSVSEENVSRLSASGFGGGTIYYPRENNTYGAVAISPGYTGTEASIAWLGERIASHGFVVITIDTITTLDQPDSRAEQLNAALNHMINRASSTVRSRIDSSRLAVMGHSMGGGGTLRLASQRPDLKAAIPLTPWHLNKNWSSVTVPTLIIGADLDTIAPVATHAKPFYNSLPSSISKAYLELDGATHFAPNIPNKIIGKYSVAWLKRFVDNDTRYTQFLCPGPRDGLFGEVEEYRSTCPF
p-NP-C2; part of the chain shown
  Km: 127 µM
  kcat: 212 s⁻¹
  kcat/Km: 1.67e+06 M⁻¹ s⁻¹
p-NP-C4; part of the chain shown
  Km: 1480 µM
  kcat: 195 s⁻¹
  kcat/Km: 132000 M⁻¹ s⁻¹
pNP-C2 [6]; part of the chain shown
  Proxy for plastic degradation: 127 µM
pNPB [1]; part of the chain shown
  Proxy for plastic degradation: 1480 µM
pNP-C2 [7]; part of the chain shown
  Proxy for plastic degradation: 212
pNPB [2]; part of the chain shown
  Proxy for plastic degradation: 195
PET [8]; part of the chain shown
  Proxy for plastic degradation: 66.3 °
PET [13]
  Proxy for plastic degradation: 1540 AU
PET [3]; part of the chain shown
  Proxy for plastic degradation: 48 mmol/mol
PET [4]; part of the chain shown
  Proxy for plastic degradation: 32 mmol/mol
MHET; 50 °C, part of the chain shown
  Proxy for plastic degradation: 5 mmol/mol
MHET; part of the chain shown
  Proxy for plastic degradation: 25 mmol/mol
PET [5]; part of the chain shown
  Proxy for plastic degradation: 63 mmol/mol
PET [9]; part of the chain shown
  Proxy for plastic degradation: 56
PET [10]; 2 h, part of the chain shown
  Proxy for plastic degradation: 119
PET [11]; part of the chain shown
  Proxy for plastic degradation: 48.9
PET [12]; part of the chain shown
  Proxy for plastic degradation: 32

B4: unnamed (protein)
chain: MANPYERGPNPTDALLEARSGPFSVSEERASRFGADGFGGGTIYYPRENNTYGAVAISPGYTGTQASVAWLGERIASHGFVVITIDTNTTLDQPDSRARQLNAALDYMINDASSAVRSRIDSSRLAVMGHSMGGGGTLRLASQRPDLKAAIPLTPWHLNKNWSSVRVPTLIIGADLDTIAPVLTHARPFYNSLPTSISKAYLELDGATHFAPNIPNKIIGKYSVAWLKRFVDNDTRYTQFLCPGPRDGLFGEVEEYRSTCPF
p-NP-C2; part of the chain shown
  Km: 200 µM
  kcat: 2.4 s⁻¹
  kcat/Km: 12000 M⁻¹ s⁻¹
p-NP-C4; part of the chain shown
  Km: 2130 µM
  kcat: 5.3 s⁻¹
  kcat/Km: 2480 M⁻¹ s⁻¹
pNP-C2 [6]; part of the chain shown
  Proxy for plastic degradation: 200 µM
pNPB [1]; part of the chain shown
  Proxy for plastic degradation: 2130 µM
pNP-C2 [7]; part of the chain shown
  Proxy for plastic degradation: 2.4
pNPB [2]; part of the chain shown
  Proxy for plastic degradation: 5.3
PET [3]; part of the chain shown
  Proxy for plastic degradation: 28 mmol/mol
PET [4]; part of the chain shown
  Proxy for plastic degradation: 29 mmol/mol
MHET; 50 °C, part of the chain shown
  Proxy for plastic degradation: 13 mmol/mol
MHET; part of the chain shown
  Proxy for plastic degradation: 18 mmol/mol
PET [5]; part of the chain shown
  Proxy for plastic degradation: 76 mmol/mol
PET [9]; part of the chain shown
  Proxy for plastic degradation: 5
PET [10]; 2 h, part of the chain shown
  Proxy for plastic degradation: 90
PET [11]; part of the chain shown
  Proxy for plastic degradation: 27.9
PET [12]; part of the chain shown
  Proxy for plastic degradation: 28.6
